Measurements as given in the supplement of paper PMC10567573.

B1: EIF5 (parent)
chain: KQTIGNSCKACGYRGMLDTHHKLC

Variants of: B1
Assay: protein stability index of a GFP-peptide fusion (GPS, HEK-293T) (PSI 1-6); higher = more stable
Details: c terminus: a fixed tail appended
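Note: lentivirally expressed fusions sorted by FACS into six bins by GFP to DsRed ratio, PSI derived from sequencing read proportions per bin multiplied by bin number.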

Variant | protein stability index
KQTIGNSIKACGYRGMLDTHHKLC | 1.74
KQTIGNSPKACGYRGMLDTHHKLC | 1.88
KQTIGNSKKACGYRGMLDTHHKLC | 2.28
KQTIGNSGKACGYRGMLDTHHKLC | 2.03
KQTIGNSCKACGYRGMLDTHHCLC | 4.4
KQTIGNSCKACGYRGMLDTHHWLC | 2.17
KQTIGNSCKACGYRGMLDTHHMLC | 3.09
KQTIGNSCKACGYRGMLDTHHILC | 2.37
KQTIGNSCKACGYRGMLDTHHSLC | 2.79
KQTIGNSCKACGYRGMLDTHHPLC | 3.79
KQTIGNSCKACGYRGMLDTHHVLC | 2.77
KLTIGNSCKACGYRGMLDTHHKLC | 2.61
KCTIGNSCKACGYRGMLDTHHKLC | 3.09
KYTIGNSCKACGYRGMLDTHHKLC | 2.19
KFTIGNSCKACGYRGMLDTHHKLC | 2.54
KVTIGNSCKACGYRGMLDTHHKLC | 3
KATIGNSCKACGYRGMLDTHHKLC | 3.48
KETIGNSCKACGYRGMLDTHHKLC | 3.74
KGTIGNSCKACGYRGMLDTHHKLC | 3.22
KNTIGNSCKACGYRGMLDTHHKLC | 3.02
KHTIGNSCKACGYRGMLDTHHKLC | 3.6
KTTIGNSCKACGYRGMLDTHHKLC | 3.05
KWTIGNSCKACGYRGMLDTHHKLC | 1.93
KMTIGNSCKACGYRGMLDTHHKLC | 2.85

Variant | protein stability index
KQTIGNVCKACGYRGMLDTHHKLC | 3.72
KQTIGNPCKACGYRGMLDTHHKLC | 2.91
KQTIGNKCKACGYRGMLDTHHKLC | 3.93
KQTIGNNCKACGYRGMLDTHHKLC | 3.25
KQTIGNFCKACGYRGMLDTHHKLC | 3.91
KQTIGNSCEACGYRGMLDTHHKLC | 3.5
KQTIGNSCDACGYRGMLDTHHKLC | 3.87
KQTIGNSCSACGYRGMLDTHHKLC | 2.88
KQTIGNSCYACGYRGMLDTHHKLC | 2.61
KQTIGNSCRACGYRGMLDTHHKLC | 2.79
KQTIGNSCAACGYRGMLDTHHKLC | 3.57
KQTIGNSCQACGYRGMLDTHHKLC | 3.11
KQTIINSCKACGYRGMLDTHHKLC | 3.12
KQTIRNSCKACGYRGMLDTHHKLC | 2.53
KQTIPNSCKACGYRGMLDTHHKLC | 3.41
KQTIYNSCKACGYRGMLDTHHKLC | 2.81
KQTIKNSCKACGYRGMLDTHHKLC | 3.26
KQTINNSCKACGYRGMLDTHHKLC | 3.44
KQTIMNSCKACGYRGMLDTHHKLC | 4.13
KQTICNSCKACGYRGMLDTHHKLC | 3
KQTIGNSCKACAYRGMLDTHHKLC | 1.37
KQTIGNSCKACCYRGMLDTHHKLC | 2.56
KQTIGNSCKACQYRGMLDTHHKLC | 2.54
KQTIGNSCKACMYRGMLDTHHKLC | 2.76

Variant | protein stability index
KQTIGNSCKACWYRGMLDTHHKLC | 1.78
KQTIGNSCKACDYRGMLDTHHKLC | 2.13
KQTIGNSCKACFYRGMLDTHHKLC | 1.73
KQTIGNSCKACIYRGMLDTHHKLC | 2.29
KQTIGNSCKACKYRGMLDTHHKLC | 3.06
KQTIGNSCKACRYRGMLDTHHKLC | 2.66
KQTIGNSCKACGYRGMLDTHHKLI | 2.07
KQTIGNSCKACGYRGMLDTHHKLM | 2.81
KQTIGNSCKACGYRGMLDTHHKLF | 2.24
KQTIGNSCKACGYRGMLDTHHKLL | 1.92
KQTIGNSCKACGYRGMLDTHHKLV | 2.35
KQTIGNSCKACGYRGMLDTHHKLQ | 2.22
KQTIGNSCKACGYRGMLDTHHKLS | 1.89
KQTIGNSCKACGYRGMLDTHHKLN | 1.91
KQTIGNSCKACGYRGMLDTHHKYC | 3.89
KQTIGNSCKACGYRGMLDTHHKQC | 3.82
KQTIGNSCKACGYRGMLDTHHKIC | 2.86
KQTIGNSCKACGYRGALDTHHKLC | 3.94
KQTIGNSCKACGYRGVLDTHHKLC | 3.27
KQTIGNSCKACGYRGQLDTHHKLC | 3.9
KQTIGNSCKACGYRGPLDTHHKLC | 4.45
KQTIGNSCKACGYRGLLDTHHKLC | 3.51
KQTIGNSCKACGYRGWLDTHHKLC | 2.62
KQTIGNSCKACGYRGHLDTHHKLC | 4.16

Variant | protein stability index
KQTIGNSCKACGYRGFLDTHHKLC | 2.58
KQTIGNSCKACGYRGDLDTHHKLC | 4.72
KQTIGNSCKACGYRGMLDTHAKLC | 2.7
KQTIGNSCKACGYRGMLDTHIKLC | 2.88
KQTIGNSCKACGYRGMLDTHLKLC | 2.77
KQTIGNSCKACGYRGMLDTHGKLC | 3.17
KQTIGNSCKACGYRAMLDTHHKLC | 1.78
KQTIGNSCKACGYRFMLDTHHKLC | 2.24
KQTIGNSCKACGYRHMLDTHHKLC | 3.1
KQTIGNSCKACGYRSMLDTHHKLC | 2.12
KQTIGNSCKACGYRTMLDTHHKLC | 2.27
KQTIGNSCKACGYRVMLDTHHKLC | 2.12
KQTIGNSCKACGYRLMLDTHHKLC | 2.44
KQTIGNSCKACGYRYMLDTHHKLC | 2.59
KQTIGNSCKADGYRGMLDTHHKLC | 1.7
KQTIGNSCKAGGYRGMLDTHHKLC | 1.69
KQTIGNSCKAIGYRGMLDTHHKLC | 1.52
KQTIGNSCKAEGYRGMLDTHHKLC | 1.55
KQTIGNSCKARGYRGMLDTHHKLC | 1.61
KQTIGNSCKASGYRGMLDTHHKLC | 1.9
KQTIGNSCKAHGYRGMLDTHHKLC | 1.53
KQTIGNSCKAPGYRGMLDTHHKLC | 1.92
